Measured values as given in paper PMC4115230, “Lipid–Protein Nanodiscs Offer New Perspectives for Structural and Functional Studies of Water-Soluble Membrane-Active Peptides” (Acta Naturae, 2014).

Legend:
[1] = system: LPN/POPC; assay: NMR titration binding isotherm with LPN/POPC nanodiscs; details: POPC, 1D 1H-NMR titration, 10 mM Tris-Ac, pH 7.0
Protocol: (§1) The recombinant 44–243 fragment of the human apolipoprotein A1 with a N-terminal sequence of six His residues was used as an MSP protein. The purified MSP protein, obtained as described in [20], was mixed at a molar ratio of 1 : 75 with lipids in the presence of a detergent, sodium cholate (2 : 1 cholate/lipids molar ratio), and the mixture was incubated at 4 °C for 3 h. When using saturated lipids (DLPC, DLPG), the reaction temperature was kept not lower than 25 °C. Spontaneous LPN assembly was initiated by detergent sorption to the Bio-Beads™ resin (Bio-Rad, USA) for 1.5 h. Purification of the nanodiscs was performed on a Ni^2+ Sepharose 6 Fast Flow resin (GE Healthcare, USA) equilibrated with buffer A (20 mM Tris-HCl, 0.5 M NaCl, 1 mM NaN3, pH 8.0). After loading the reaction mixture, the resin was washed with a fivefold volume of buffer A. LPNs were eluted with buffer A containing 100 mM imidazole. The MSP concentration was determined spectrophotometrically by absorbance at λ = 280 nm. The LPN concentration was determined by assuming that each nanodisc contained two MSP molecules.
(§2) NMR spectra were acquired at 40–45 °C on AVANCE -700 and AVANCE -III-800 spectrometers (Bruker, Germany) equipped with cryogenically cooled triple-resonance probes at the proton resonance frequencies of 700 and 800 MHz, respectively. […]

[2] = system: LPN/POPC/DOPG (3 : 1); assay: NMR titration binding isotherm with LPN/POPC/DOPG (3 : 1) nanodiscs; details: 10 mM Tris-Ac; for binding to LPNs: POPC/DOPG, 3 : 1, 1D 1H-NMR titration, pH 7.0
Protocol: as §1
(§3) NMR spectra were acquired at 40–45 °C on AVANCE -700 and AVANCE -III-800 spectrometers (Bruker, Germany) equipped with cryogenically cooled triple-resonance probes at the proton resonance frequencies of 700 and 800 MHz, respectively.
(§4) To measure the isotherms of the toxins binding to LPNs and MSP molecules, the VSTx1 and NT II samples ([…], 10 mM Tris-Ac, pH 7.0) were titrated with solutions of nanodiscs (70 μM) of various lipid compositions or with a MSP solution (0.7 mM). The 1D 1H-NMR spectrum was acquired at each point. A data analysis was performed assuming that the intensity of the observed NMR signals of a peptide is proportional to its equilibrium concentration in solution ([P]free). The binding curves were fitted either to the partition equilibrium equation (1) or to the Langmuir isotherm equation (2), taking into account the dilution of the initial samples upon titration:
(§5) where [LPN/lipid] is the LPN concentration (assuming that one nanodisc contains two MSP molecules) or the lipid concentration (assuming that one nanodisc contains 150 lipid molecules), [P]boundis the concentration of a peptide bound to LPN ([P]0 = [P]free+ [P]bound), Kpis the partition coefficient, n is the number of binding sites for a peptide on the nanodisc surface, and Knis the affinity constant of the peptide to the binding site on the nanodisc surface.

[3] = system: MSP (44-243 fragment of human apolipoprotein A1); assay: NMR titration binding isotherm with MSP; details: MSP without lipids; 1D 1H-NMR titration, 10 mM Tris-Ac, pH 7.0
Protocol: as §1, §2

[4] = system: LPN/POPC/DOPS (4 : 1); assay: NMR titration binding isotherm with LPN/POPC/DOPS (4 : 1) nanodiscs; details: for binding to LPNs: POPC/DOPS, 4 : 1, 1D 1H-NMR titration, pH 7.0
Protocol: as §1, §3, §4, §5

[5] = system: LPNs; assay: Gel filtration analysis of LPNs after peptide addition (nanodisc integrity, particle size); assay type: physicochemical; details: Superdex-200, 10 mM Tris-HCl, 0.1 M NaCl
Protocol: was carried out on a Superdex-200 resin using a Tricorn 5/200 column (GE Healthcare, Sweden) in buffer (10 mM Tris-HCl, 0.1 M NaCl, 1 mM EDTA, 1 mM NaN3, pH 7.4). Thyroglobulin (669 kDa, Stokes radius RH = 8.5 nm), ferritin (440 kDa, RH = 6.1 nm), catalase (232 kDa, RH = 5.22 nm), aldolase (158 kDa, RH = 4.81 nm) BSA (67 kDa, RH = 3.55 nm), and ovalbumin (43 kDa, RH = 3.05 nm) were used as calibration proteins. The flow rate through the column was 0.3 ml/min. Detection was performed at 280 nm. The particle size was determined from the elution volume vs the lgRH calibration curve. All the particle size (diameter) values provided below correspond to twice RH values. ;

[6] = system: LPN/POPC/DOPS (4 : 1); assay: Saturation of POPC choline signal (NOE magnetization transfer) in 2D 1H,15N-TROSY; assay type: binding; details: 45 μM 2H,15N-NT II, 75 μM LPN/POPC/DOPS (4 : 1), 10 mM Tris-Ac, pH 7.0
Protocol: (§6) The interaction of NT II with LPN was studied using a sample containing 45 μM ^2H,^15N-NT II, and 75 μM LPN/POPC/DOPS (4 : 1) (10 mM Tris-Ac, pH 7.0). To identify the peptide HN-groups making contacts with the nanodisc surface, the ^1H signal of choline group of the POPC lipid ((CH3)3N^+-, chemical shift is 3.2 ppm) was saturated at a frequency of 125 Hz for 0.1, 0.3, 0.5, 0.8, 1.0, 1.5, and 3.0 s using a relaxation delay of 3 s. […] To identify the peptide HN-groups making contacts with the hydrophobic region of the nanodisc membrane, the paramagnetic probe of 5-doxyl-stearic acid (5-DSA) was used. 5-DSA dissolved in a small amount of methanol was added to the sample containing NT II/LPN complexes to a final concentration of 10, 30, and 75 μM. […] The rates of the cross-correlation process between the dipole-dipole relaxation and relaxation arising from the chemical shift anisotropy of the ^15N nucleus (ηXY) were measured for the complexes of NT II with LPN/POPC/DOPS at 40 °C on an AVANCE -III-800 spectrometer, using amplitude modulated 2D ^1H,^15NTR OSY experiments. The rotational correlation time (τR) for the peptide HN-groups was calculated from the measured ηXY values.

[7] = system: LPN/POPC/DOPS (4 : 1); assay: Paramagnetic relaxation enhancement from 5-DSA in 2D 1H,15N-TROSY; assay type: binding; details: 5-DSA 10, 30 and 75 μM; 45 μM 2H,15N-NT II, 75 μM LPN/POPC/DOPS (4 : 1), pH 7.0
Protocol: as §6

[8] = system: LPN/POPC/DOPS (4 : 1); assay: 15N cross-correlation relaxation rates (ηXY) of NT II in complex with LPN; assay type: physicochemical
Protocol: as §3, §6

[9] = system: LPN/POPC/DOPS (4 : 1); assay: Topology of NT II on nanodisc membrane (combined NOE and PRE data); assay type: binding; details: fast exchange on the NMR scale
Protocol: as §6

[10] = system: muscle-type nicotinic acetylcholine receptor; details: blocks ligand binding sites with its central loop; ref [36]; cited from earlier work
From the text: Neurotoxin II (NT II) is a cationic non-hydrophobic peptide which is stabilized by four disulfide bonds and has the so-called “three-loop” β-structure fold characteristic for snake toxins (Fig. 1). […] It blocks, with its central loop, the ligand binding sites located on the receptor extracellular domain [36]. Unlike VSTx1, NT II has no explicit membrane activity. At the same time, the ^1H,^15N-, and ^31P-NMR spectroscopy investigation of NT II in the environment of DOPC/ DOPS/cholesterol (3 : 1 : 1) ...

B1: neurotoxin II (peptide)
chain: LECHNQQSSQPPTTKTCSGETNCYKKWWSDHRGTIIERGCGCPKVKPGVNLNCCRTDRCNN
modifications: not fully specified; ends and bridges not checked; also: 2H,15N-labeled
binding to LPNs [1]: lack of detectable binding | binding to LPNs ([1]; listed as NTII): does not bind | binding to LPNs [2]: low affinity | binding to LPNs ([2]; listed as NTII): comparatively low affinity | Kp(LPN, MSP×2), partition coefficient ([2]; partition equilibrium (eq. 1), LPN concentration as non-aqueous phase, pH 7.0, 40–45 °C, no added salt): 0.32 ± 0.01 ×10^6·M^-1 | Kp(Lipids), partition coefficient ([2]; partition equilibrium (eq. 1), lipid concentration as non-aqueous phase (150 lipids per nanodisc), pH 7.0, 40–45 °C, no added salt): 2.13 ± 0.07 ×10^3·M^-1 | interaction with MSP [3]: absence of nonspecific toxin interactions with the MSP protein | selectivity for membranes containing different anionic lipids (phosphatidylserine and phosphatidylglycerol) ([4]; LPN/POPC/DOPS (4 : 1) compared with LPN/POPC/DOPG (3 : 1)): lack of significant NT II selectivity | binding to LPNs ([4]; 10 mM Tris-Ac): low affinity | binding to LPNs ([4]; 10 mM Tris-Ac, listed as NTII): comparatively low affinity | Kp(LPN, MSP×2), partition coefficient ([4]; partition equilibrium (eq. 1), LPN concentration as non-aqueous phase, 10 mM Tris-Ac, pH 7.0, 40–45 °C, no added salt): 0.16 ± 0.01 ×10^6·M^-1 | Kp(Lipids), partition coefficient ([4]; partition equilibrium (eq. 1), lipid concentration as non-aqueous phase (150 lipids per nanodisc), 10 mM Tris-Ac, pH 7.0, 40–45 °C, no added salt): 1.07±0.07 ×10^3·M^-1 | nanodisc disruption ([5]; 1 mM EDTA, pH 7.4, 280 nm): no disruption of nanodiscs | diameter of unbound toxin ([5]; pH 7.4, diameter = 2 RH): ~ 2.6 nm | toxin regions with drop of cross-peak intensity on POPC choline saturation [6]: 1) in the toxin “head”, near the putative binding site for phosphatidylserine, and 2) in the central (second) loop, at the level of Trp27, Trp28, and Ile35 residues | residues with maximum attenuation of HN-signal intensities (PRE) [7]: Thr21 residue of the toxin “head” and for residues of the third and second loops | ηXY, cross-correlation rates of 15N nuclear relaxation, range ([8]; 2H,15N-NT II in complex with LPN/POPC/DOPS, 800 MHz, 40 °C): 2.5 to 40 Hz | diameter of globular particle corresponding to mean τR ([8]; calculated from mean τR): ~ 5.4 nm | mass of globular particle corresponding to mean τR ([8]; calculated from mean τR): ~ 34 kDa | rotational correlation time τR, range ([8]; calculated from ηXY, NT II in complex with LPN/POPC/DOPS, 40 °C): 2 to 31 ns | rotational correlation time τR, mean ([8]; calculated from ηXY, mean, NT II in complex with LPN/POPC/DOPS, 40 °C): ~ 12.5 ns | ηXY, cross-correlation rates of 15N nuclear relaxation, mean ([8]; mean value, 2H,15N-NT II in complex with LPN/POPC/DOPS, 800 MHz, 40 °C): 16.3 ± 9.2 Hz | orientations on the nanodisc surface [9]: several (at least two) orientations | orientations on the nanodisc surface ([9]; listed as NTII): several orientations | inhibition of muscle-type nicotinic acetylcholine receptor [10]: highly specific inhibitor
